This note sets out measurements from patent US20200024360A1 (Janssen / Centocor, published 2020).

In experiment [1] the target is T1, Cynomolgous monkey PSMA, full length (Macaca fascicularis, UniProt Q04609 1-750 (human entry)).
T1 construct: On transfected HEK293F cells; also called cyno PSMA; EHH56646.1
T1 chain: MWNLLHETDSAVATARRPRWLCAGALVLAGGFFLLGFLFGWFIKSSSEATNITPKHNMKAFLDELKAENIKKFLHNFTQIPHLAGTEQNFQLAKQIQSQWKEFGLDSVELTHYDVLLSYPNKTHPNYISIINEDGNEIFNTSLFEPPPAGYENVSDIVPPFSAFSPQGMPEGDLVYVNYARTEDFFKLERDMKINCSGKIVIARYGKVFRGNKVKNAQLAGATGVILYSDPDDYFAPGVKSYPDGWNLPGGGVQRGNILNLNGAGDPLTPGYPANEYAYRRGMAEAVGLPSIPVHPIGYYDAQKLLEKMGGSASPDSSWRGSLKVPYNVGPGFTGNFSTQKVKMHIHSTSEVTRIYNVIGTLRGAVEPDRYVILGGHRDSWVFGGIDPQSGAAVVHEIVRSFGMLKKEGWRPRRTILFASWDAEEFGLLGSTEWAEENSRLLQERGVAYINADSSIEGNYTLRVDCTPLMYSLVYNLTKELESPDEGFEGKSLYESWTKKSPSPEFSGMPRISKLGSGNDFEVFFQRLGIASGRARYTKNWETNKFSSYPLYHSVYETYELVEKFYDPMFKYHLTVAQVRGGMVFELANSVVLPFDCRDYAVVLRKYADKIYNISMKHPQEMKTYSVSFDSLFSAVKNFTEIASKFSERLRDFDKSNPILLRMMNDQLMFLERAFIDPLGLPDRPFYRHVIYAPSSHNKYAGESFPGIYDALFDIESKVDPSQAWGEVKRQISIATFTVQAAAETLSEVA
Briefly: FACS, whole cell binding, cyno PSMA HEK. The procedure: (§1) PSMA×CD3 bispecific antibodies were tested for binding to PSMA positive cell lines LNCAP, human PSMA-HEK, Chimpanzee-PSMA-HEK and Cynomolgous monkey PSMA-HEK. To assess the binding capabilities of the PSMA bispecific antibodies, the cell-binding assay was utilized (described previously). Briefly, PSMA expressing tumor cells are bound by bispecific antibodies at known concentrations and the bound antibody is detected by an anti-human kappa light chain PE conjugated detection reagent (Invitrogen). The Mean Fluorescents Intensity (MFI) is the measure of bound bispecific antibody. The MFI is converted to a relative EC₅₀. EC₅₀ is a commonly used dose-response curve, where the half maximal effective concentration or the EC₅₀ point is defined as the inflection point of the curve. EC₅₀ s were determined by measuring cell bound bispecific and known concentrations. […] The dose response curves were then diluted down to that of background or no bispecific binding. The inflection point of this curve reflects the EC₅₀ point. The calculated EC₅₀ is determined by taking the ug/ml amount of bispecific antibody at the EC₅₀ point and converting it to a molarity value based on the MW of the bispecific antibody. Bispecific antibodies were normalized for protein concentration and then incubated with the same number of cells expressing either human or cyno PSMA. The MFI at each concentration was collected by flow cytometry and plotted as a function of concentration. Data was transformed via log 10 and then plotted. Nonlinear regression of binding curves was done to determine EC₅₀ s. These relative values were used for ranking PSMA binding to target cells.
Background: A flow cytometer gives signals particle by particle.

In experiment [2] the target is T2, chimpanzee PSMA, full length (Pan troglodytes, UniProt Q04609 1-750 (human entry)).
T2 construct: On transfected HEK293F cells; also called chimp PSMA; H2Q3K5_PANTR
T2 chain: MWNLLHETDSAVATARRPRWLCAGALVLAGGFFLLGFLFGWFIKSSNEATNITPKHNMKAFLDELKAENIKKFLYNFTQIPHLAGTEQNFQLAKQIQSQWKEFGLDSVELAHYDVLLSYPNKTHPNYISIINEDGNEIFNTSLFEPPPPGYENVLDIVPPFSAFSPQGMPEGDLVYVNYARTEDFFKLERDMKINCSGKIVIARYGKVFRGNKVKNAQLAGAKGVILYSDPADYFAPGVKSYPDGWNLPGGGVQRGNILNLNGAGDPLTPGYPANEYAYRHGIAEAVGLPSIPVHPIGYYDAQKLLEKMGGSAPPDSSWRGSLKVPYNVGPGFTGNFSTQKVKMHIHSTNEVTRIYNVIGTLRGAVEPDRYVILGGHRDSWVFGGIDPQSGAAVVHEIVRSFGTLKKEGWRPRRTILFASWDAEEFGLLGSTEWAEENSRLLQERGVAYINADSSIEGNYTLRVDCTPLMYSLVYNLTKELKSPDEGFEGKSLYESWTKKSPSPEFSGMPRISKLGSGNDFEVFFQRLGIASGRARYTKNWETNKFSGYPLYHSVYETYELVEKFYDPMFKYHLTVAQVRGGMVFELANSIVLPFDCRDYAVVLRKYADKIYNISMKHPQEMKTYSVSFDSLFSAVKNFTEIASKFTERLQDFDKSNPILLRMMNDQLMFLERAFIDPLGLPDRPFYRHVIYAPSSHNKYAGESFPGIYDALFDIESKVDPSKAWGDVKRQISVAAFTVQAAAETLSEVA
As to the kind of experiment: FACS, whole cell binding, chimp PSMA HEK. The procedure: as §1

B1: PS3B27 (bispecific antibody, human IgG4 S228P, kappa, lambda, F234A L235A)
heavy 1: not shown
light 1: not shown
heavy 2: EVQLVESGGGLVQPGGSLRLSCAASGFTFNTYAMNWVRQAPGKGLEWVARIRSKYNNYATYYAASVKGRFTISRDDSKNSLYLQMNSLKTEDTAVYYCARHGNFGNSYVSWFAYWGQGTLVTVSSASTKGPSVFPLAPCSRSTSESTAALGCLVKDYFPEPVTVSWNSGALTSGVHTFPAVLQSSGLYSLSSVVTVPSSSLGTKTYTCNVDHKPSNTKVDKRVESKYGPPCPPCPAPEAAGGPSVFLFPPKPKDTLMISRTPEVTCVVVDVSQEDPEVQFNWYVDGVEVHNAKTKPREEQFNSTYRVVSVLTVLHQDWLNGKEYKCKVSNKGLPSSIEKTISKAKGQPREPQVYTLPPSQEEMTKNQVSLTCLVKGFYPSDIAVEWESNGQPENNYKTTPPVLDSDGSFLLYSKLTVDKSRWQEGNVFSCSVMHEALHNHYTQKSLSLSLGK
light 2: QTVVTQEPSLTVSPGGTVTLTCRSSTGAVTTSNYANWVQQKPGQAPRGLIGGTNKRAPGTPARFSGSLLGGKAALTLSGVQPEDEAEYYCALWYSNLWVFGGGTKLTVLGQPKAAPSVTLFPPSSEELQANKATLVCLISDFYPGAVTVAWKADSSPVKAGVETTTPSKQSNNKYAASSYLSLTPEQWKSHRSYSCQVTHEGSTVEKTVAPTECS
notes: IgG4 PAA; PSMA arm chains first, then CD3 arm (F405L, R409K); also called PSMB127 x CD3B219; PS2B27
One may read the EC50 as the concentration needed to bring the measured effect to its halfway point. On to B1, for which the concentration for a half-maximal effect (EC50) in experiment [1] was 1.4 µg/mL; in experiment [2], 3.24 µg/mL.

B2: PS3B22 (bispecific antibody, human IgG4 S228P, kappa, lambda, F234A L235A)
heavy 1: not shown
light 1: DIQMTQSPSSLSASVGDRVTITCRASQSIDRWLNWYQQKPGKAPKLLIYAASSLQSGVPSRFSGSGSGTDFTLTISSLQPEDFATYYCQQSPRYPLTFGQGTKVEIKRTVAAPSVFIFPPSDEQLKSGTASVVCLLNNFYPREAKVQWKVDNALQSGNSQESVTEQDSKDSTYSLSSTLTLSKADYEKHKVYACEVTHQGLSSPVTKSFNRGEC
heavy 2: EVQLVESGGGLVQPGGSLRLSCAASGFTFNTYAMNWVRQAPGKGLEWVARIRSKYNNYATYYAASVKGRFTISRDDSKNSLYLQMNSLKTEDTAVYYCARHGNFGNSYVSWFAYWGQGTLVTVSSASTKGPSVFPLAPCSRSTSESTAALGCLVKDYFPEPVTVSWNSGALTSGVHTFPAVLQSSGLYSLSSVVTVPSSSLGTKTYTCNVDHKPSNTKVDKRVESKYGPPCPPCPAPEAAGGPSVFLFPPKPKDTLMISRTPEVTCVVVDVSQEDPEVQFNWYVDGVEVHNAKTKPREEQFNSTYRVVSVLTVLHQDWLNGKEYKCKVSNKGLPSSIEKTISKAKGQPREPQVYTLPPSQEEMTKNQVSLTCLVKGFYPSDIAVEWESNGQPENNYKTTPPVLDSDGSFLLYSKLTVDKSRWQEGNVFSCSVMHEALHNHYTQKSLSLSLGK
light 2: QTVVTQEPSLTVSPGGTVTLTCRSSTGAVTTSNYANWVQQKPGQAPRGLIGGTNKRAPGTPARFSGSLLGGKAALTLSGVQPEDEAEYYCALWYSNLWVFGGGTKLTVLGQPKAAPSVTLFPPSSEELQANKATLVCLISDFYPGAVTVAWKADSSPVKAGVETTTPSKQSNNKYAASSYLSLTPEQWKSHRSYSCQVTHEGSTVEKTVAPTECS
notes: IgG4 PAA; PSMA arm chains first, then CD3 arm (F405L, R409K); also called PSMB122 x CD3B219; PSB22
For B2, the EC50 stood at 1.14 µg/mL in experiment [1] and 3.02 µg/mL in experiment [2].

B3: PS3B19 (bispecific antibody, human IgG4 S228P, kappa, lambda, F234A L235A)
heavy 1: not shown
light 1: not shown
heavy 2: EVQLVESGGGLVQPGGSLRLSCAASGFTFNTYAMNWVRQAPGKGLEWVARIRSKYNNYATYYAASVKGRFTISRDDSKNSLYLQMNSLKTEDTAVYYCARHGNFGNSYVSWFAYWGQGTLVTVSSASTKGPSVFPLAPCSRSTSESTAALGCLVKDYFPEPVTVSWNSGALTSGVHTFPAVLQSSGLYSLSSVVTVPSSSLGTKTYTCNVDHKPSNTKVDKRVESKYGPPCPPCPAPEAAGGPSVFLFPPKPKDTLMISRTPEVTCVVVDVSQEDPEVQFNWYVDGVEVHNAKTKPREEQFNSTYRVVSVLTVLHQDWLNGKEYKCKVSNKGLPSSIEKTISKAKGQPREPQVYTLPPSQEEMTKNQVSLTCLVKGFYPSDIAVEWESNGQPENNYKTTPPVLDSDGSFLLYSKLTVDKSRWQEGNVFSCSVMHEALHNHYTQKSLSLSLGK
light 2: QTVVTQEPSLTVSPGGTVTLTCRSSTGAVTTSNYANWVQQKPGQAPRGLIGGTNKRAPGTPARFSGSLLGGKAALTLSGVQPEDEAEYYCALWYSNLWVFGGGTKLTVLGQPKAAPSVTLFPPSSEELQANKATLVCLISDFYPGAVTVAWKADSSPVKAGVETTTPSKQSNNKYAASSYLSLTPEQWKSHRSYSCQVTHEGSTVEKTVAPTECS
notes: IgG4 PAA; PSMA arm chains first, then CD3 arm (F405L, R409K); also called PSMB119 x CD3B219
For B3, the half-maximal effective concentration (EC50) in experiment [1] is 1.76 µg/mL; in experiment [2], 5.1 µg/mL.

B4: PS3B23 (bispecific antibody, human IgG4 S228P, kappa, lambda, F234A L235A)
heavy 1: not shown
light 1: not shown
heavy 2: EVQLVESGGGLVQPGGSLRLSCAASGFTFNTYAMNWVRQAPGKGLEWVARIRSKYNNYATYYAASVKGRFTISRDDSKNSLYLQMNSLKTEDTAVYYCARHGNFGNSYVSWFAYWGQGTLVTVSSASTKGPSVFPLAPCSRSTSESTAALGCLVKDYFPEPVTVSWNSGALTSGVHTFPAVLQSSGLYSLSSVVTVPSSSLGTKTYTCNVDHKPSNTKVDKRVESKYGPPCPPCPAPEAAGGPSVFLFPPKPKDTLMISRTPEVTCVVVDVSQEDPEVQFNWYVDGVEVHNAKTKPREEQFNSTYRVVSVLTVLHQDWLNGKEYKCKVSNKGLPSSIEKTISKAKGQPREPQVYTLPPSQEEMTKNQVSLTCLVKGFYPSDIAVEWESNGQPENNYKTTPPVLDSDGSFLLYSKLTVDKSRWQEGNVFSCSVMHEALHNHYTQKSLSLSLGK
light 2: QTVVTQEPSLTVSPGGTVTLTCRSSTGAVTTSNYANWVQQKPGQAPRGLIGGTNKRAPGTPARFSGSLLGGKAALTLSGVQPEDEAEYYCALWYSNLWVFGGGTKLTVLGQPKAAPSVTLFPPSSEELQANKATLVCLISDFYPGAVTVAWKADSSPVKAGVETTTPSKQSNNKYAASSYLSLTPEQWKSHRSYSCQVTHEGSTVEKTVAPTECS
notes: IgG4 PAA; PSMA arm chains first, then CD3 arm (F405L, R409K); also called PSMB123 x CD3B219
Consider B4, for which the EC50 in experiment [1] was 3.74 µg/mL; in experiment [2], 0.88 µg/mL.

B5: PS3B30 (bispecific antibody, human IgG4 S228P, kappa, lambda, F234A L235A)
heavy 1: not shown
light 1: not shown
heavy 2: EVQLVESGGGLVQPGGSLRLSCAASGFTFNTYAMNWVRQAPGKGLEWVARIRSKYNNYATYYAASVKGRFTISRDDSKNSLYLQMNSLKTEDTAVYYCARHGNFGNSYVSWFAYWGQGTLVTVSSASTKGPSVFPLAPCSRSTSESTAALGCLVKDYFPEPVTVSWNSGALTSGVHTFPAVLQSSGLYSLSSVVTVPSSSLGTKTYTCNVDHKPSNTKVDKRVESKYGPPCPPCPAPEAAGGPSVFLFPPKPKDTLMISRTPEVTCVVVDVSQEDPEVQFNWYVDGVEVHNAKTKPREEQFNSTYRVVSVLTVLHQDWLNGKEYKCKVSNKGLPSSIEKTISKAKGQPREPQVYTLPPSQEEMTKNQVSLTCLVKGFYPSDIAVEWESNGQPENNYKTTPPVLDSDGSFLLYSKLTVDKSRWQEGNVFSCSVMHEALHNHYTQKSLSLSLGK
light 2: QTVVTQEPSLTVSPGGTVTLTCRSSTGAVTTSNYANWVQQKPGQAPRGLIGGTNKRAPGTPARFSGSLLGGKAALTLSGVQPEDEAEYYCALWYSNLWVFGGGTKLTVLGQPKAAPSVTLFPPSSEELQANKATLVCLISDFYPGAVTVAWKADSSPVKAGVETTTPSKQSNNKYAASSYLSLTPEQWKSHRSYSCQVTHEGSTVEKTVAPTECS
notes: IgG4 PAA; PSMA arm chains first, then CD3 arm (F405L, R409K); also called PSMB130 x CD3B219
On to B5, for which the 50% effective concentration (EC50) in experiment [1] was found to be 5.37 µg/mL; in experiment [2], 3.29 µg/mL.
